For the assay, the target named is wild-type GroEL chaperonin (GroEL14) (E. coli) (UniProt P0A6F5). The assay is described as follows: SDS-PAGE band intensity + absorption spectrophotometry; purified GroEL14-EGFP population assembled in vivo by coexpression; Coomassie-stained bands of WT GroEL (~60 kDa) and GroEL-EGFP (~90 kDa); absorption at 280 and 489 nm. Particulars: scale: WT subunits per fusion GroEL-EGFP subunit.
wild-type GroEL chaperonin (GroEL14) (E. coli), sequence (P0A6F5 whole entry, the tested form may be a part): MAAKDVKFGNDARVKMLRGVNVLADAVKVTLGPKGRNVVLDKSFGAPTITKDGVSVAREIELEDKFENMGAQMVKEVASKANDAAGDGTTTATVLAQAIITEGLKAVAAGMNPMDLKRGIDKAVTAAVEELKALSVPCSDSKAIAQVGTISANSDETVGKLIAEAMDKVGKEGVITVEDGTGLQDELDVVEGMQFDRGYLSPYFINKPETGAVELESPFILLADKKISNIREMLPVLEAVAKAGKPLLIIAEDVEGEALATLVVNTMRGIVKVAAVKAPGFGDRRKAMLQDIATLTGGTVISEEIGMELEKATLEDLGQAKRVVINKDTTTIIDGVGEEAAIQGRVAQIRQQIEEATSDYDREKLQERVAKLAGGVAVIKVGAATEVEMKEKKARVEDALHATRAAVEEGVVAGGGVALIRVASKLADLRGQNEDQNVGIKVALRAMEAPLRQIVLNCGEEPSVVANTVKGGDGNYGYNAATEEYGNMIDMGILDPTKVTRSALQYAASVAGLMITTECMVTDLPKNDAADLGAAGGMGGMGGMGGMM

For “GroEL-EGFP fusion subunit (from UniProt P0A6F5 1-548; P42212 2-238)”, the stoichiometry N (usually a count of units in the complex or per binding partner) came out at 12.

The record behind these values is article PMC9965216.
